Laboratory results from US20190270826A1 (Janssen / Centocor, published 2019).

Experiments:
human FcγRIIb = biological target: T1, human FcγRIIb (human, UniProt P31994 43-217, limits assumed); assay: AlphaScreen competition, human FcγRIIb (n=1); displaced: biotinylated control mAb B21M hIgG1 WT; pH 7.2
T1 construct: GST-tagged
T1 sequence (looked up): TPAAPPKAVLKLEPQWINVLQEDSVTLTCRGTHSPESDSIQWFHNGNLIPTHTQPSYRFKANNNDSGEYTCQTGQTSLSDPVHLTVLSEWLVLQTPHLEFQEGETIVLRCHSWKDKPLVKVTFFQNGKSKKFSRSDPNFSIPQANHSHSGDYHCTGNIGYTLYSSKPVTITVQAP
Source text: (§1) Measurements were made using an AlphaScreen™ assay (Amplified Luminescent Proximity Homogeneous Assay (ALPHA), PerkinElmer, Wellesley, Mass.), a bead-based luminescent proximity assay. Laser excitation of a donor bead excites oxygen, which if sufficiently close to the acceptor bead generates a cascade of chemiluminescent events, ultimately leading to fluorescence emission at 520-620 nm.

[1] = biological target: T2, rat IL1RAP ECD displayed on HEK-293F cells (pDisplay) (rat, UniProt Q63621 21-367); assay: MSD cell binding, HEK-293F Rat clone 1 cells displaying rat IL1RAP ECD
T2 sequence: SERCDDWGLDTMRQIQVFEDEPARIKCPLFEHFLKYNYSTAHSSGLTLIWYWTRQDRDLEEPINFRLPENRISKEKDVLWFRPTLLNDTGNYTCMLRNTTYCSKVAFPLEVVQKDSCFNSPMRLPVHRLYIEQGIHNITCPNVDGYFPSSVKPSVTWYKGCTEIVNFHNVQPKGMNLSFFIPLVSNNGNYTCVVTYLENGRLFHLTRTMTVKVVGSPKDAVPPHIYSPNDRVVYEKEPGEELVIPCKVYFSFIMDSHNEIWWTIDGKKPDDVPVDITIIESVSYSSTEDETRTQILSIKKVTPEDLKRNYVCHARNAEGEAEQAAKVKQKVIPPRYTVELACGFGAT
Protocol: (§2) Cells were immobilized and IL1RAP antibody samples were assayed in triplicate. Briefly, expression supernatants of purified IL1RAP antibodies were normalized to 10 μg/mL. 5000 cells per well were plated into a 384 well plate (MA6000, cat. L21XB, MSD) and allowed to adhere for 2 hr. Cells were then blocked with 20% FBS in PBS (Gibco) for 15 mins. Antibody supernatants were then added and left at RT for 1 hr. Cells were washed 3 times with PBS and a ruthenium labeled secondary antibody (Mesoscale Discovery) was then added at 2 μg/mL and incubated for 1 hour at room temperature. A further washing step was then applied and 35 μL per well of 2×MSD Read buffer T (surfactant free) was then added and incubated for 5-30 minutes for detection. Plates were then read using Sector Imager 2400 (MSD). Data was normalized to controls and graphed using GraphPad Prism Version 5. A positive binder was determined to be a hit with a signal 3× greater than parental cell line background.
(§3) The MSD cell binding assay described in Example 4 was used to assess IL1RAP binding.

human FcγRI = biological target: T3, human FcγRI (human, UniProt P12314 16-292, limits assumed); assay: AlphaScreen competition, human FcγRI (n=1); displaced: biotinylated control mAb B21M hIgG1 AlaAla; pH 7.2
T3 construct: GST-tagged, on glutathione acceptor beads; also called FcγRT [sic]
Source text: as §1

[2] = biological target: T4, human IL1RAP on cells (endogenous) (human, UniProt Q9NPH3 21-570); assay: cell-based or functional assay
T4 sequence (looked up): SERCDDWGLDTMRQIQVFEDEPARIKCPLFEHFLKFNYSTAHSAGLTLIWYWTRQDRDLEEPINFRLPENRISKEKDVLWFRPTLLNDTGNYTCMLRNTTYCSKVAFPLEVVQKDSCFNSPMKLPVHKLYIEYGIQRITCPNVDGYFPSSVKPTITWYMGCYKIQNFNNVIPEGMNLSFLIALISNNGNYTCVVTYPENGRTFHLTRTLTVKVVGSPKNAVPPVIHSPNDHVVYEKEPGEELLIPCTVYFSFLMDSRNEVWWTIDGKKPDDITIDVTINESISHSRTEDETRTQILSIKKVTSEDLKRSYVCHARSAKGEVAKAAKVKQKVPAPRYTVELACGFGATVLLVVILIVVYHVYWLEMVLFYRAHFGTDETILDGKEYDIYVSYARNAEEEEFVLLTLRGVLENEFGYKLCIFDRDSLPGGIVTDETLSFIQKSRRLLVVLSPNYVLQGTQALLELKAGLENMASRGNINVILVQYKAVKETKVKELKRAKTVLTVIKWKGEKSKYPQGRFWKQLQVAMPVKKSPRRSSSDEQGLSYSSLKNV

[3] = biological target: T5, human IL1RAP ECD displayed on HEK-293F cells (pDisplay) (human, UniProt Q9NPH3 21-367); assay: MSD cell binding, HEK-293F Human (clone HE2) cells displaying human IL1RAP ECD
T5 construct: also called Human clone HE2 IL1RAP FL-ECD cell line
T5 sequence: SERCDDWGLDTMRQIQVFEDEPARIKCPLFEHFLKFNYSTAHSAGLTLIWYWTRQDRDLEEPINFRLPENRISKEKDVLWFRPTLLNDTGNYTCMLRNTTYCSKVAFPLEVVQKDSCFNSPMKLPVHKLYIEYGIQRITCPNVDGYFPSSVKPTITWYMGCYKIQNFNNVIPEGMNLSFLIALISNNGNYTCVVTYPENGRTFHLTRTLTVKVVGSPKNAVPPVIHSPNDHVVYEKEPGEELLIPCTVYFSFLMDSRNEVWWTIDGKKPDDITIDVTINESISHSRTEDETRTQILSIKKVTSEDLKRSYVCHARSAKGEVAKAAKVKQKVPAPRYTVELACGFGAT
Protocol: as §2, §3

T3 sequence (P12314 16-292 limits assumed): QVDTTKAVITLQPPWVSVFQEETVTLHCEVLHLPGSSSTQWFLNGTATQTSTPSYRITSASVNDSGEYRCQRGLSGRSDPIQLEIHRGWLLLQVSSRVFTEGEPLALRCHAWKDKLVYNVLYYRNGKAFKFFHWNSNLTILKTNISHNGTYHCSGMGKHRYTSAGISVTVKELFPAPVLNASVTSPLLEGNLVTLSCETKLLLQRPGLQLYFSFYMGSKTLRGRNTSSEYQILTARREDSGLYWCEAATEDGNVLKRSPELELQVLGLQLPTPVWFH

B1: IC3B19 (bispecific antibody, human IgG4 S228P, kappa, lambda, F234A L235A)
heavy 1: EVQLVESGGGLVQPGGSLRLSCAASGFTFNTYAMNWVRQAPGKGLEWVARIRSKYNNYATYYAASVKGRFTISRDDSKNSLYLQMNSLKTEDTAVYYCARHGNFGNSYVSWFAYWGQGTLVTVSSASTKGPSVFPLAPCSRSTSESTAALGCLVKDYFPEPVTVSWNSGALTSGVHTFPAVLQSSGLYSLSSVVTVPSSSLGTKTYTCNVDHKPSNTKVDKRVESKYGPPCPPCPAPEAAGGPSVFLFPPKPKDTLMISRTPEVTCVVVDVSQEDPEVQFNWYVDGVEVHNAKTKPREEQFNSTYRVVSVLTVLHQDWLNGKEYKCKVSNKGLPSSIEKTISKAKGQPREPQVYTLPPSQEEMTKNQVSLTCLVKGFYPSDIAVEWESNGQPENNYKTTPPVLDSDGSFLLYSKLTVDKSRWQEGNVFSCSVMHEALHNHYTQKSLSLSLGK
light 1: QTVVTQEPSLTVSPGGTVTLTCRSSTGAVTTSNYANWVQQKPGQAPRGLIGGTNKRAPGTPARFSGSLLGGKAALTLSGVQPEDEAEYYCALWYSNLWVFGGGTKLTVLGQPKAAPSVTLFPPSSEELQANKATLVCLISDFYPGAVTVAWKADSSPVKAGVETTTPSKQSNNKYAASSYLSLTPEQWKSHRSYSCQVTHEGSTVEKTVAPTECS
heavy 2: not shown
light 2: DIQLTQSPSFLSASVGDRVTITCRASQGISSYLAWYQQKPGKAPKLLIYAASTLQSGVPSRFSGSGSGTEFTLTISSLQPEDFATYYCQQVNSYPLTFGGGTKVEIKRTVAAPSVFIFPPSDEQLKSGTASVVCLLNNFYPREAKVQWKVDNALQSGNSQESVTEQDSKDSTYSLSSTLTLSKADYEKHKVYACEVTHQGLSSPVTKSFNRGEC
notes: IgG4-PAA, Fab arm exchange; also called IAPB57 x CD3B219; IL1RAP x CD3
- binding result (human FcγRIIb): binds
- binding result [1]: no binding (tested: 100 µg/mL)
- IC50 (read off the curve) (human FcγRI): ~90 nM
- mean EC50, T-cell activation, OCI-AML5 cells in whole blood, 48 h [2]: 5.99 nM
- mean EC50, cytotoxicity of OCI-AML5 cells in whole blood, 48 h [2]: 3.13 nM
- EC50 (read off the curve) [3]: ~1 µg/mL
